How the values were obtained:
Test in all cases: cell-based or functional assay
[1] = molecular target: T1, Chryseobacterium sp-62563 deamidase V190G (Chryseobacterium sp-62563)
T1 chain: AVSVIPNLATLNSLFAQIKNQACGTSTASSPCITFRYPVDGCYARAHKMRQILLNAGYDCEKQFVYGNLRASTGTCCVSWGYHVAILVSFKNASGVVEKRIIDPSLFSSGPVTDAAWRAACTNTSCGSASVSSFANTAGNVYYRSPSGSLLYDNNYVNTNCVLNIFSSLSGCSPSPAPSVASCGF

[2] = molecular target: T2, Chryseobacterium sp-62563 deamidase Y252S (Chryseobacterium sp-62563)
T2 chain: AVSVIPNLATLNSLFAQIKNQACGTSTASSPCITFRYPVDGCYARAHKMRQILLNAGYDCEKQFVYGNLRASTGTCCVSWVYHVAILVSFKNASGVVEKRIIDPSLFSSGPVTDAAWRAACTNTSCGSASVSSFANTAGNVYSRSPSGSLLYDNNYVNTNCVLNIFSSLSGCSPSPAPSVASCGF

[3] = molecular target: T3, Chryseobacterium sp-62563 deamidase L260E (Chryseobacterium sp-62563)
T3 chain: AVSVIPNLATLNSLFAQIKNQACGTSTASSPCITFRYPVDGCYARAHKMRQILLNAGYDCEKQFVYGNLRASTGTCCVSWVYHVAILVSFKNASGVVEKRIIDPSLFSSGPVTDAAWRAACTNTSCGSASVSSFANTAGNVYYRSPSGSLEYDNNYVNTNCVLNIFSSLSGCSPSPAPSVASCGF

[4] = molecular target: T4, Chryseobacterium sp-62563 deamidase V190D (Chryseobacterium sp-62563)
T4 chain: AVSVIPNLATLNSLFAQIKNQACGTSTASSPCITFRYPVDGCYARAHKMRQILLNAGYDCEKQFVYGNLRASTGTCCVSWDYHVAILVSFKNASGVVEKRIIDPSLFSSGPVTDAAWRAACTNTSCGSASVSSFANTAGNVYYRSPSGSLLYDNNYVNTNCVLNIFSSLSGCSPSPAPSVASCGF

[5] = molecular target: T5, Chryseobacterium sp-62563 deamidase P255D (Chryseobacterium sp-62563)
T5 chain: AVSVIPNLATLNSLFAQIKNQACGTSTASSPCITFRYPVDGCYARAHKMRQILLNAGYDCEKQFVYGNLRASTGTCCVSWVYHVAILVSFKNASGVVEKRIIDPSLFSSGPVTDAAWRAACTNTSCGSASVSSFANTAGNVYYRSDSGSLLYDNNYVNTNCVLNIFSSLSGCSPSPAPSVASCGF

[6] = molecular target: T6, Chryseobacterium sp-62563 deamidase V190Q (Chryseobacterium sp-62563)
T6 chain: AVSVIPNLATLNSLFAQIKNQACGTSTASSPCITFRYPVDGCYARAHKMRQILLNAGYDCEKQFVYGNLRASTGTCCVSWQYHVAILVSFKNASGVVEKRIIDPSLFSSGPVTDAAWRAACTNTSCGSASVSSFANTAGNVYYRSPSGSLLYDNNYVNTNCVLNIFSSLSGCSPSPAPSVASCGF

[7] = molecular target: T7, Chryseobacterium sp-62563 deamidase L259P (Chryseobacterium sp-62563)
T7 chain: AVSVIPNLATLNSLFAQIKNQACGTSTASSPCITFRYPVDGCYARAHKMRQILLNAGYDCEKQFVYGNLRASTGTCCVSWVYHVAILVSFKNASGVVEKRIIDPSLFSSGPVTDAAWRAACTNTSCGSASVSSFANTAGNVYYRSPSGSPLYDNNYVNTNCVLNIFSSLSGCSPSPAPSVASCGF

[8] = molecular target: T8, Chryseobacterium sp-62563 deamidase V190K (Chryseobacterium sp-62563)
T8 chain: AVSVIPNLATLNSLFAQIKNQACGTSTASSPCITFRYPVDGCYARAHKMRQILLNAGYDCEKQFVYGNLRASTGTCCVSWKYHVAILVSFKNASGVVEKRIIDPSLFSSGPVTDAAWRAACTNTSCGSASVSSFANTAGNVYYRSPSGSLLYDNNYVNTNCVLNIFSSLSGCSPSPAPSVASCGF

[9] = molecular target: T9, Chryseobacterium sp-62563 deamidase V190M (Chryseobacterium sp-62563)
T9 chain: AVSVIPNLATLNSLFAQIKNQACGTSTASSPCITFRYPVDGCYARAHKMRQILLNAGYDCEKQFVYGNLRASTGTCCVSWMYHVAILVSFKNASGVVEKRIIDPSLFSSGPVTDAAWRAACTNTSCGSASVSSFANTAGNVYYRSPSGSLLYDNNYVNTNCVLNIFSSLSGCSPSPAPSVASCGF

[10] = molecular target: T10, Chryseobacterium sp-62563 deamidase V190P (Chryseobacterium sp-62563)
T10 chain: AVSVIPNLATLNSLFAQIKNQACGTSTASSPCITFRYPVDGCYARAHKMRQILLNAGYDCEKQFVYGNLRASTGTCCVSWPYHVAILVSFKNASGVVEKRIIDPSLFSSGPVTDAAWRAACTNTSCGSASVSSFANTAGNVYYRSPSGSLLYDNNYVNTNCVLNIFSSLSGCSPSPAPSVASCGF

[11] = molecular target: T11, Chryseobacterium sp-62563 deamidase T268I (Chryseobacterium sp-62563)
T11 chain: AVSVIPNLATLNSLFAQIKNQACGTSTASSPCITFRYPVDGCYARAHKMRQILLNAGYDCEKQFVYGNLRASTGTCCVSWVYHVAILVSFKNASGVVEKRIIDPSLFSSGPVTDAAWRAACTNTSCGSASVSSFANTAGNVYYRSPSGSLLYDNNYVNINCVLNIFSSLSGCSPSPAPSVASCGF

[12] = molecular target: T12, Chryseobacterium sp-62563 deamidase polypeptide (second polypeptide, deamidase domain), wildtype (Chryseobacterium sp-62563)
T12 chain: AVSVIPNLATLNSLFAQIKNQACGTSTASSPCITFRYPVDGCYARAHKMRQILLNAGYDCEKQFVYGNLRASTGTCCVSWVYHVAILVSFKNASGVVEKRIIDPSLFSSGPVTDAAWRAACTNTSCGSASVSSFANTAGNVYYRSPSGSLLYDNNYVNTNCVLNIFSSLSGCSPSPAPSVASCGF

B1: Chryseobacterium sp-62563 propeptide (first polypeptide, propeptide domain), wildtype (other)
chain: NQDPNLVAKESNETAMKDFGKTVPVGIEKEDGKFKISFMVTAQPYEIKDSKENAAYISMIKTAVENETPIHVFLKANTNEIAKVDKATDDDIRYFKSVFTKEVKEENRK
- NanoDSF thermal unfolding temperature [1]: 78 ° C.
- NanoDSF thermal unfolding temperature [2]: 73.4 ° C.
- NanoDSF thermal unfolding temperature [3]: 72.6 ° C.
- NanoDSF thermal unfolding temperature [4]: 75.4 ° C.
- NanoDSF thermal unfolding temperature [5]: 81.4 ° C.
- NanoDSF thermal unfolding temperature [6]: 75.8 ° C.
- NanoDSF thermal unfolding temperature [7]: 80 ° C.
- NanoDSF thermal unfolding temperature [8]: 76.4 ° C.
- NanoDSF thermal unfolding temperature [9]: 82 ° C.
- NanoDSF thermal unfolding temperature [10]: 74.9 ° C.
- NanoDSF thermal unfolding temperature [11]: 76.2 ° C.
- NanoDSF thermal unfolding temperature [12]: 85.3 ° C.

Source: patent US20250215412A1 (NOVOZYMES A S, published 2025)
